# Assay results as given in patent US12233115B2, “Long-acting parathyroid hormone” (Extend Biosciences, Inc., priority 2022, dated 2025).
# Like-named read-outs stand apart in the source and are kept apart here.
# Tests used:
# [1] = target: T1, vitamin D binding protein (DBP) (Homo sapiens, UniProt P02774); assay: Bio-layer interferometry binding of DBP to immobilized biotinylated conjugate; conditions: BLI steady state fit, DBP 0-75 μM; read-out: KD (binding equilibrium constant)
# T1 construct: purchased Athens Research and Technology 16-16-070307
# T1 sequence (P02774 17-474): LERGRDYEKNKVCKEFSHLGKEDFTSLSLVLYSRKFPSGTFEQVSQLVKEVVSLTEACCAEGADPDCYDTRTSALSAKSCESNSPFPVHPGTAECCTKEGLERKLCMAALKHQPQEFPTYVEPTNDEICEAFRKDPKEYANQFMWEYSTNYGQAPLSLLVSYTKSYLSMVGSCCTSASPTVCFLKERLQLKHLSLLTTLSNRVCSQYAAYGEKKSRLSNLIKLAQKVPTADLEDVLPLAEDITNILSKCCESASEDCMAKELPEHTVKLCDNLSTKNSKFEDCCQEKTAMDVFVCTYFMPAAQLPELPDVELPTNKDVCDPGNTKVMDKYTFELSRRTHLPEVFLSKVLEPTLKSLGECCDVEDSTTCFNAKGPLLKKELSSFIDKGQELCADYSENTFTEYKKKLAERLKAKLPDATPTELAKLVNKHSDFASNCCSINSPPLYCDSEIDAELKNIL
# Method: EXT607 and EXT608 were biotinylated using the EZ-Link Sulfo-NHS Biotin No-Weigh kit (Thermo Fisher Scientific, Waltham, MA, Catalog No. PIA39256). One mmol of biotin was reacted with 1 mmol of conjugate for 1 hour at room temperature. Unbound biotin was separated from biotinylated conjugate with a PD-10 desalting column (GE Lifesciences/Cytiva, Marlborough, MA, Catalog No. 17085101). The biotinylation ratio was quantitated using the Pierce Biotin Quantitation Kit (Thermo Fisher Scientific, Waltham, MA, Catalog No. PI28005). DBP was purchased from Athens Research and Technology (Athens, GA, Catalog No. 16-16-070307).
# Affinity measurements were collected on the Octet Red96 using prehydrated Dip and Read Streptavidin (SA) Biosensors (ForteBio, Fremont, CA, Catalog No. 18-5021). Reagents were diluted into phosphate buffered saline (PBS) with 0.02% Tween 20 in a black 96-well plate. Biotinylated EXT607 or EXT608 were prepared at a biotin concentration of 50 μg/mL and loaded onto the SA tips for 2 minutes. A buffer-only negative loading control was used to measure non-specific binding of DBP to the SA biosensors. A titration of DBP ranging from 0 to 75 μM was prepared. DBP was associated to the loaded tips for 5 minutes and dissociated with buffer solution for 10 minutes.
# Solubility in PBS (A280) = type: physicochemical
# Method: PEG Length and Counterion Affects Solubility: The solubility of the acetate and carbonate salt form of each compound was determined as follows. For EXT611, EXT606, and EXT608, phosphate buffered saline (PBS) was added to each compound to form a saturated solution. Undissolved compound was removed by centrifugation. The concentration of dissolved compound was determined by measuring the absorbance at 280 nm using an extinction coefficient of 18,600 M^−1 cm^−1. For EXT615, EXT616, and EXT617, solubility was limited practically by the high viscosity imparted by the large PEG moieties. Highly viscous drug formulations are difficult to manipulate and require large needle bore sizes that cause increased injection site pain. PBS was added to EXT615, EXT616, and EXT617 incrementally until a solution was obtained that could be successfully pipetted through a pipet tip with a bore of approximately 1 mm diameter (enlarged by removing the end with a razor blade). The concentration of dissolved compound was determined by measuring the absorbance at 280 nm using an extinction coefficient of 18,600 M^−1 cm^−1. […] For EXT608, the acetate salt was 17.6-fold more soluble than the carbonate salt.
# [2] = Repeat dose pharmacokinetics of EXT608 in male and female cynomolgus monkeys; type: in vivo; conditions: cynomolgus monkey; for Cmin: 0-48 h; for AUC(0-t): sc
# Method: 21-Day Experiment: EXT608 was formulated in 20 mM sodium acetate pH=5.5 buffer with 0.8% sodium chloride. In a repeat dose toxicokinetic study, groups of 4 cynomolgus monkeys (2 males+2 females weighing approximately 2.5 kg each) were subcutaneously dosed every other day at a volume of 0.05 ml/kg with either 1.4, 7 or 20 μg/kg of EXT608. On the last day of dosing, Day 21, blood samples (˜1.0 ml) were collected at t=0 (pre-dose), 0.5, 1, 3, 6, 12, 24, 48, and 72 h. Each blood sample was collected from the saphenous vein into tubes containing K2EDTA and centrifuged (˜2700 g, ˜10 min, ˜5° C.) within 1 hour of collection. Plasma was recovered and divided evenly into duplicate aliquots and frozen. 90-Day Experiment: EXT608 was formulated in 10 mM sodium acetate pH=5.5 buffer with 0.8% sodium chloride and 0.1% Polysorbate 80. In a repeat dose toxicokinetic study, groups of 6 cynomolgus monkeys (3 males+3 females) were subcutaneously dosed every other day at a volume of 0.05 ml/kg with either 0.7 or 2 μg/kg of EXT608. On the last day of dosing, Day 89, blood samples (˜1.0 ml) were collected at t=0 (pre-dose), 0.5, 1, 3, 6, 12, 24, 48, and 72 h. Plasma was prepared as described above for the 21-Day experiment. […] Group-averaged EXT608 levels as a function of time are shown in FIG. 14 for the last dose administration after either 21 days of every other day dosing (20, 7, and 1.4 μg/kg) or 89 days of every other day dosing (2 and 0.7 μg/kg). Surprising, the PK profiles changed as a function of dose level. […] Pharmacokinetic parameters were determined from the plasma concentration versus time data (Table 7) by a non-compartmental extravascular administration model with uniform weighting using Phoenix® WinNonlin® Version 6.4 (Certara L.P. (Pharsight), Princeton, NJ). Pharmacokinetic analysis was performed on data for individual animals collected from t=0 to 72 h following the last administered dose. […] It is noted that the t1/2 values were calculated from less than three half-lives of data. […] The Cmax/Cmin ratio represents the peak-to-trough ratio of EXT608 concentration that is observed during a dosing period. […] Without being bound by theory, the low peak-to-trough ratios observed at low doses could be the result of a slower rate of absorption of EXT608 from the subcutaneous space into circulation. A low peak-to-trough ratio is desirable in many therapeutic applications including parathyroid hormone replacement therapy. This is because it allows dosing at levels close to the ideal efficacious dose without going too high where toxicity is observed, or too low where the efficacy is reduced.
# [3] = in vivo, 1.4 ug/kg, every-other-day SC 1.4 μg/kg, 21 days
compound,measurement,setting,value
C=C1CC[C@H](OCCCNC(=O)CCOCCOCCOCCOCCOCCOCCOCCOCCOCCOCCOCCOCCOCCOCCOCCOCCOCCOCCOCCOCCOCCOCCOCCOCCOCCOCCOCCOCCOCCOCCOCCOCCOCCOCCOCCOCCNC(=O)CCN2C(=O)CC(SC[C@H](NC(=O)[C@H](Cc3ccccc3)NC(=O)[C@H](CC(N)=O)NC(=O)[C@H](Cc3c[nH]cn3)NC(=O)[C@@H](NC(=O)[C@H](CC(=O)O)NC(=O)[C@H](CCC(N)=O)NC(=O)[C@H](CC(C)C)NC(=O)[C@H](CCCCN)NC(=O)[C@H](CCCCN)NC(=O)[C@H](CCCNC(=N)N)NC(=O)[C@H](CC(C)C)NC(=O)[C@H](Cc3c[nH]c4ccccc34)NC(=O)[C@H](CCC(=O)O)NC(=O)[C@@H](NC(=O)[C@H](CCCNC(=N)N)NC(=O)[C@H](CCC(=O)O)NC(=O)[C@H](CCSC)NC(=O)[C@H](CO)NC(=O)[C@H](CC(N)=O)NC(=O)[C@H](CC(C)C)NC(=O)[C@H](Cc3c[nH]cn3)NC(=O)[C@H](CCCCN)NC(=O)CNC(=O)[C@H](CC(C)C)NC(=O)[C@H](CC(N)=O)NC(=O)[C@H](Cc3c[nH]cn3)NC(=O)[C@H](CCSC)NC(=O)[C@H](CC(C)C)NC(=O)[C@H](CCC(N)=O)NC(=O)[C@@H](NC(=O)[C@H](CCC(=O)O)NC(=O)[C@H](CO)NC(=O)[C@@H](NC(=O)[C@@H](N)CO)C(C)C)[C@@H](C)CC)C(C)C)C(C)C)C(N)=O)C2=O)C/C1=C/C=C1\CCC[C@]2(C)[C@@H]([C@H](C)CCCC(C)(C)O)CC[C@@H]12 (some centres unmarked) [EXT608],Kd,[1],5.2 µM
same,"fold more soluble, acetate salt vs carbonate salt",Solubility in PBS (A280),17.6 fold
same,solubility,"Solubility in PBS (A280); acetate salt, read-out: Solubility as Acetate",9.67 mM
same,solubility,"Solubility in PBS (A280); carbonate salt, read-out: Solubility as Carbonate",0.55 mM
same,Cmin,"[2]; every-other-day SC 0.7 μg/kg, 89 days",0.600 ng/mL
same,Cmin,"[2]; every-other-day SC 1.4 μg/kg, 21 days",0.485 ng/mL
same,Cmin,"[2]; every-other-day SC 2 μg/kg, 89 days",0.635 ng/mL
same,Cmin,"[2]; every-other-day SC 7 μg/kg, 21 days",0.991 ng/mL
same,Cmin,"[2]; every-other-day SC 20 μg/kg, 21 days",1.97 ng/mL
same,AUC(0-t),"[2]; in vivo, 0.7 ug/kg, every-other-day SC 0.7 μg/kg, 89 days, read-out: AUC0-48 h",45.4 ng·h/mL
same,AUC(0-t),"[2]; in vivo, 0.7 ug/kg, every-other-day SC 0.7 μg/kg, 89 days, read-out: AUClast",61.6 ng·h/mL
same,AUC(0-t),"[2]; in vivo, 1.4 ug/kg, every-other-day SC 1.4 μg/kg, 21 days, read-out: AUC0-48 h",41.5 ng·h/mL
same,AUC(0-t),"[2]; in vivo, 1.4 ug/kg, every-other-day SC 1.4 μg/kg, 21 days, read-out: AUClast",48 ng·h/mL
same,AUC(0-t),"[2]; in vivo, 2 ug/kg, every-other-day SC 2 μg/kg, 89 days, read-out: AUC0-48 h",63.1 ng·h/mL
same,AUC(0-t),"[2]; in vivo, 7 ug/kg, every-other-day SC 7 μg/kg, 21 days, read-out: AUC0-48 h",147 ng·h/mL
same,AUC(0-t),"[2]; in vivo, 20 ug/kg, every-other-day SC 20 μg/kg, 21 days, read-out: AUC0-48 h",401 ng·h/mL
same,Cmax,[2]; [3],1.63 ng/mL
same,Tmax,[2]; [3],1.8 h
same,Cmax,"[2]; in vivo, 20 ug/kg, every-other-day SC 20 μg/kg, 21 days",38.1 ng/mL
same,half-life,"[2]; in vivo, repeated every-other-day SC dosing, across doses, calculated from less than three half-lives of data, read-out: t1/2 of elimination",2080 to 3060 min
